From patent US20260347504 (published 2026)

Tests used:
[1] = biological target: human TLR4 ECD (human, UniProt O00206); assay: SPR, TLR4 immobilized
[2] = biological target: human RAGE ECD (human, UniProt Q15109); assay: SPR, RAGE immobilized
human RAGE ECD, sequence (Q15109 1-344): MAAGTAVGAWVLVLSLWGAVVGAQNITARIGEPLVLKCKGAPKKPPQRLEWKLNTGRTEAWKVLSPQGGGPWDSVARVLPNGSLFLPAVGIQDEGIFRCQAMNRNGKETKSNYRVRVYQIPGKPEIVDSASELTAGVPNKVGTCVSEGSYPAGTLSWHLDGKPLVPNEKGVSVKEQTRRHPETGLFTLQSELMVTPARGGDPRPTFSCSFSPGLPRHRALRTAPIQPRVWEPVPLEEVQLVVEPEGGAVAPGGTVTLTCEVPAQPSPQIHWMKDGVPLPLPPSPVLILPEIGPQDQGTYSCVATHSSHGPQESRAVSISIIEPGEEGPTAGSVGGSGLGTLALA

human TLR4 ECD, sequence (O00206 1-631): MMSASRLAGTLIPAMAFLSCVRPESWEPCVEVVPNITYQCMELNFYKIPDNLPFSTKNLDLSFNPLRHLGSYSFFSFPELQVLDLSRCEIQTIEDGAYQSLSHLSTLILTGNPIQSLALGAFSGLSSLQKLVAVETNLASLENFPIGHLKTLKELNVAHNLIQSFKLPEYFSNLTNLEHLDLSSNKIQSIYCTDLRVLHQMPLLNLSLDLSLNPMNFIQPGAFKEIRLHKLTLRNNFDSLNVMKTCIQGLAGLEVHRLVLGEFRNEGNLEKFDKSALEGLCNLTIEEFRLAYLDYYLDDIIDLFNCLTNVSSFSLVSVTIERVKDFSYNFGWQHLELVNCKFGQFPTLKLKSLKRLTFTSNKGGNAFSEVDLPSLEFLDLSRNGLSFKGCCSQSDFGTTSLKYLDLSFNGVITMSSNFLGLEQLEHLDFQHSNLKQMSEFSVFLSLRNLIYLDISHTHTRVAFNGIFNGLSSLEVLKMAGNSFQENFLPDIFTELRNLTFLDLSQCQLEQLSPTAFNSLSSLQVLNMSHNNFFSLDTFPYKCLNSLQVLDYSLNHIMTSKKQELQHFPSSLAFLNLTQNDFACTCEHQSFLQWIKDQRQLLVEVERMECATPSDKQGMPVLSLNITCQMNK

B1: human pCTS-L (protein)
chain: ATLTFDHSLEAQWTKWKAMHNRLYGMNEEGWRRAVWEKNMKMIELHNQEYREGKHSFTMAMNAFGDMTSEEFRQVMNGFQNRKPRKGKVFQEPLFYEAPRSVDWREKGYVTPVKNQGQCGSCWAFSATGALEGQMFRKTGRLISLSEQNLVDCSGPQGNEGCNGGLMDYAFQYVQDNGGLDSEESYPYEATEESCKYNPKYSVANDTGFVDIPKQEKALMKAVATVGPISVAIDAGHESFLFYKEGIYFEPDCSSEDMDHGVLVVGYGFESTESDNNKYWLVKNSWGEEWGMGGYVKMAKDRRNHCGIASAASYPTV
B1 was tested, and the Kd [1] was 64.4 nM and the Kd [2] was 3 nM.
